Assay results taken from paper PMC11091976, “Shorter Peptide Nucleic Acid Probes Improve Affibody-Mediated Peptide Nucleic Acid-Based Pretargeting” (ACS Pharmacology & Translational Science, 2024).

Columns and labels:
[1] = system: HER2-expressing cell lines pretreated with Z-HP9; test: In vitro pretargeting specificity of secondary probes; type: cell-based, human; details: Z-HP9 1 nM, labeled secondary probe 10 nM, 1 h 37 °C; n = 3
Description: Figure 4 In vitro binding specificity of primary agents, (A) [^177Lu]Lu-Z-HP9 and (B) [^177Lu]Lu-Z-HP12 on SKOV-3 and BT-474 cell lines. […] In the second and third groups, cells were incubated with a large amount of unlabeled anti-HER2 ZHER2:342 affibody molecule and unlabeled secondary agent before the addition of radiolabeled secondary agent, respectively. A radiolabeled secondary agent was added directly to cells in the fourth group without adding a primary agent. The data are presented as an average value from three samples ±SD.
Figure 4C,D further elucidates the specificity of PNA-mediated pretargeting on HER2-expressing cell lines when cells were pretreated with a primary agent. […] These findings collectively affirm the success of the in vitro pretargeting approach.
Thereafter, ^177Lu-secondary probe (10 nM) was added, and cells were incubated for 1 h at 37 °C. After that, cells were treated as mentioned above. […] Then, a radiolabeled secondary probe (10 nM) was added and incubated for 1 h at 37 °C. Further treatment was the same as pretargeting group. […] Further treatment was the same as mentioned above. To evaluate unspecific binding, the radiolabeled secondary probe (10 nM) was added to the cells without any pretreatment with the primary agent and incubated for 1 h at 37 °C. After incubation, the cells were washed and treated as mentioned above.

[2] = system: SKOV-3 cells; test: Cellular processing and retention (acid wash), SKOV-3; type: cell-based, human; details: SKOV-3 pretreated with 1 nM nonlabeled Z-HP9; labeled secondary probe 10 nM; n = 3
Description: (§1) After a 24 h incubation period, the total cell-associated bound activity was recorded as 72.0 ± 1.7 and 65.2 ± 1.8% for [^177Lu]Lu-Z-HP9, and 74.5 ± 0.2 and 55.6 ± 2.4% for [^177Lu]Lu-Z-HP12 on SKOV-3 and BT-474 cells, respectively. The internalized fractions were quantified as 9.7 ± 1.1 and 10.4 ± 0.6% for [^177Lu]Lu-Z-HP9 and [^177Lu]Lu-Z-HP12 after 24 h of incubation. The pattern was similar for both HER2-expressing cell lines, with slow internalization, which is typical for affibody molecules.
(§2) Figure 5 Cellular processing and retention of [^177Lu]Lu-Z-HP9 (A,B), [^177Lu]Lu-Z-HP12 (C,D), [^177Lu]Lu-HP16 (E,F), and [^177Lu]Lu-HP20 (G, H) on SKOV-3 (A,C,E,G) and BT-474 (B,D,F,H) cells after interrupted incubation with labeled compounds. […] The data are presented as an average value from three samples ±SD.
(§3) The pattern of internalization of the labeled secondary probes by cancer cells, which were pretreated with primary probes, was similar to the pattern for primary agents. […]
(§4) A validated acid-wash method[53] was used for cellular processing and retention of radiolabeled probes by SKOV-3 and BT-474 using interrupted incubation procedure. […] The radioactivity in each fraction was measured using an automated gamma spectrometer. The radioactivity of acidic and alkaline fractions was considered as membrane and internalized parts, respectively. […]

[3] = system: BT-474 cells; test: Cellular processing and retention (acid wash), BT-474; type: cell-based, human; details: BT-474 pretreated with 1 nM nonlabeled Z-HP9; labeled secondary probe 10 nM; n = 3
Description: as §1, §2, §3, §4

[4] = in vivo; parameters: species or system BALB/C nu/nu mice; details: female, BALB/C nu/nu, mouse, total radioactivity
Description: Animal studies were planned in agreement with EU Directive 2010/63/EU for animal experiments and Swedish national legislation concerning the protection of laboratory animals and were approved by the Ethics Committee for Animal Research in Uppsala, Sweden (animal permission C4/16). HER2-positive xenografts were implanted by subcutaneous injection of 10^7 SKOV-3 cells in the right hind legs of female BALB/C nu/nu mice. Three weeks after implantation, mice were randomized into 8 groups, with 4 mice in each group. At the time of the experiment, the average animal weight was 20 ± 1 g. The average tumor weight was 0.26 ± 0.14 g. The mice were euthanized at predetermined time points by overdose of Ketamine/Xylazine anesthesia, followed by heart puncture. The organs of interest such as blood, lung, liver, spleen, kidney, muscle, bone, and tumor were collected, weighed, and subsequently their radioactivity was measured. Organs and tumor uptake were calculated as the percentage of the injected dose per gram of the sample (%ID/g).
To evaluate in vivo specificity, 2 groups of mice were injected with [^177Lu]Lu-HP16 and [^177Lu]Lu-HP20 without preinjection of the primary agent. At 4 h postinjection, the mice were euthanized and treated as mentioned above.
Table S2. Comparative biodistribution of [177Lu]Lu-HP16 and [177Lu]Lu-HP20 in BALB/C nu/nu mice bearing SKOV3
xenografts at 4 h post-injection without pre-injection of a primary agent. Data are presented as an average of %ID/g ± SD, n
*Significant (p<0.05) difference; **The gastrointestinal (GI) and carcass data are expressed as %ID per whole sample.

For NC(=O)[C@H](Cc1ccc(O)cc1)NC(=O)[C@H](CCC(=O)O)NC(=O)[C@H](CCC(=O)O)NC(=O)CN(CCNC(=O)CN(CCNC(=O)CN(CCNC(=O)CN(CCNC(=O)CN(CCNC(=O)CN(CCNC(=O)CN(CCNC(=O)CN(CCNC(=O)CN(CCNC(=O)[C@H](CO)NC(=O)[C@H](CO)NC(=O)COCCOCCNC(=O)CN1CCN(CC(=O)O)CCN(CC(=O)O)CCN(CC(=O)O)CC1)C(=O)Cn1cnc2c(N)ncnc21)C(=O)Cn1cnc2c(N)ncnc21)C(=O)Cn1ccc(N)nc1=O)C(=O)Cn1cnc2c(N)ncnc21)C(=O)Cn1ccc(N)nc1=O)C(=O)Cn1ccc(N)nc1=O)C(=O)Cn1cnc2c(N)ncnc21)C(=O)Cn1cnc2c(=O)[nH]c(N)nc21)C(=O)Cn1cnc2c(=O)[nH]c(N)nc21 [[^177Lu]Lu-HP16, metal not drawn], the “binding to Z-HP9 pretreated cells relative to other treated groups” value [1] was 11 fold, the “total cell-associated bound activity after 24 h” value [2] was 55.0 ± 1.0% and the “total cell-associated bound activity after 24 h” value [3] was 26.1 ± 1.2%. It also gave a tissue uptake at 4 h ([4]; Blood) of 0.02 ± 0.02 %ID/g, a tissue uptake at 4 h ([4]; Bone) of 0.04 ± 0.01 %ID/g and a tissue uptake dose at 4 h ([4]; Carcass) of 1.49 ± 0.42 %ID. It also gave a tissue uptake dose at 4 h ([4]; GI) of 0.61 ± 0.16 %ID, a tissue uptake at 4 h ([4]; Kidney) of 4.41 ± 0.61 %ID/g and a tissue uptake at 4 h ([4]; Liver) of 0.13 ± 0.01 %ID/g. It also gave a tissue uptake at 4 h ([4]; Lung) of 0.1 ± 0.03 %ID/g, a tissue uptake at 4 h ([4]; Muscle) of 0.05 ± 0.02 %ID/g and a tissue uptake at 4 h ([4]; Spleen) of 0.08 ± 0.01 %ID/g. The tissue uptake at 4 h ([4]; Tumour) was 0.09 ± 0.01 %ID/g.

For NC(=O)[C@H](Cc1ccc(O)cc1)NC(=O)[C@H](CCC(=O)O)NC(=O)[C@H](CCC(=O)O)NC(=O)CN(CCNC(=O)CN(CCNC(=O)CN(CCNC(=O)CN(CCNC(=O)CN(CCNC(=O)CN(CCNC(=O)CN(CCNC(=O)CN(CCNC(=O)[C@H](CO)NC(=O)[C@H](CO)NC(=O)COCCOCCNC(=O)CN1CCN(CC(=O)O)CCN(CC(=O)O)CCN(CC(=O)O)CC1)C(=O)Cn1cnc2c(N)ncnc21)C(=O)Cn1ccc(N)nc1=O)C(=O)Cn1cnc2c(N)ncnc21)C(=O)Cn1ccc(N)nc1=O)C(=O)Cn1ccc(N)nc1=O)C(=O)Cn1cnc2c(N)ncnc21)C(=O)Cn1cnc2c(=O)[nH]c(N)nc21)C(=O)Cn1cnc2c(=O)[nH]c(N)nc21 [[^177Lu]Lu-HP20, metal not drawn], the “binding to Z-HP9 pretreated cells relative to other treated groups” value [1] was 11 fold, the “total cell-associated bound activity after 24 h” value [2] was 52.8 ± 0.4% and the “total cell-associated bound activity after 24 h” value [3] was 42.2 ± 2.0%. It also gave a tissue uptake at 4 h ([4]; Blood) of 0.01 ± 0.004 %ID/g, a tissue uptake at 4 h ([4]; Bone) of 0.03 ± 0.02 %ID/g and a tissue uptake dose at 4 h ([4]; Carcass) of 1.1 ± 0.34 %ID. It also gave a tissue uptake dose at 4 h ([4]; GI) of 1.25 ± 1.06 %ID, a tissue uptake at 4 h ([4]; Kidney) of 4.86 ± 0.85 %ID/g and a tissue uptake at 4 h ([4]; Liver) of 0.15 ± 0.01 %ID/g. It also gave a tissue uptake at 4 h ([4]; Lung) of 0.07 ± 0.01 %ID/g, a tissue uptake at 4 h ([4]; Muscle) of 0.02 ± 0.01 %ID/g and a tissue uptake at 4 h ([4]; Spleen) of 0.07 ± 0.01 %ID/g. For the same compound, the tissue uptake at 4 h ([4]; Tumour) was 0.11 ± 0.03 %ID/g.
